Measurements published in the DeepSol protein solubility set.

Assay: soluble on expression in E. coli; label from the status in PepcDB or PDB records

Sequence | soluble on expression in E. coli
SSKRKRKRSVQEGENPDDGVRGSPPEDYRLGQVASSLFRGEHHSRGGTGRLASLFSSLEPQIQPVYVPVPKQTIKKTKRNEEEESTSQIERPLSQEPAKKVKAKKKHTNAEKKLADRESALASADLEEEIHQKQGQKRKNSQPGVKVADRKILDDTEDTVVSQRKKIQINQEEERLKNERTVFVGNLPVTCNKKKLKSFFKEYGQIESVRFRSLIPAEGTLSKKLAAIKRKIHPDQKNINAYVVFKEESAATQALKRNGAQIADGFRIRVDLASETSSRDKRSVFVGNLPYKVEESAIEKHFLDCGSIMAVRIVRDKMTGIGKGFGYVLFENTDSVHLALKLNNSELMGRKLRVMRSVNKEKFKQQNSNPRLKNVSKPKQGLNFTSKTAEGHPKSLFIGEKAVLLKTKKKGQKKSGRPKKQRKQK | soluble
MNPRQAFFACLHRSPPALLEAALWIAAEHDPQVVPGLLLEEFKQLQQQVGSSLPTLPANELGQPLLRRLNDLGFQQDEHLPLRPQAALMDKVLERRRGQPLALALIALELAQRLQVPLAGVNFPGHFLLRVPGADHLLDPCGGRRLYPNDCRELLQRQYGAHIKLSAEHLASAEPLQMFQRLSRNLRQLHLSYDDHLGALINAERVLEIGNGSAADYLARASLYQRLECPNAERFDLEHALLLSDDPIQRLRLTERLGHLPPNTIVHLEHHHHHH | soluble
MSLDVKNLAKWKKVPPVSDRIANTFVALKMLREVDEEHNPVLFSKAHRDNIYTVIDISHESPVYNPASLEAGGIHYQKYPTVSKIPPTPDEVRDFIALVDRLQKEITEKMEKSNTSGAARLRPVVGVHCHYGFNRTGFLIVSYLIERCGFGVQEAIDEFEKRRPPGIRHAHFIDTLFVRYCVGLKRAPTEGHHHHHH | not soluble
GMDDLSEFVDQVPLLDHHCHFLIDGKVPNRDDRLAQVSTEADKDYPLADTKNRLAYHGFLALAKEFALDANNPLAAMNDPGYATYNHRIFGHFHFKELLIDTGFVPDDPILDLDQTAELVGIPVKAIYRLETHAEDFMLEHDNFAAWWQAFSNDVKQAKAHGFVGFKSIAAYRVGLHLEPVNVIEAAAGFDTWKHSGEKRLTSKPLIDYMLYHVAPFIIAQDMPLQFHVGYGDADTDMYLGNPLLMRDYLKAFTKKGLKVVLLHCYPYHREAGYLASVFPNLYFDISLLDNLGPSGASRVFNEAVELAPYTRILFASDASTYPEMYGLAARQFKQALVAHFNQLPFVDLAQKKAWINAICWQTSAKLYHQERELRV | soluble
MGSDKIHHHHHHMNSIFTEENLLAFTTAARFGSFSKAAEELGLTTSAISYTIKRMETGLDVVLFTRSTRSIELTESGRYFFRKATDLLNDFYAIKRRIDTISQGIEARVRICINQLLYTPKHTARLLQVLKKQFPTCQITVTTEVYNGVWDAIINNQANIAIGAPDTLLDGGGIDYTEIGAIRWAFAIAPDHPLAFVPEPIAESQLRLYPNIMVEDTAHTINKKVGWLLHGQESILVPDFNTKCQCQILGEGIGFLPDYMVREAMTQSLLVTRQIHNPRQDSRMLLATQHSATGQVTQWIKKQFAPNGILTGIYQDLLHREN | not soluble
MSLGPMRDLTWGQINFIHTTDTHGWIGGHLQEPQYSADWGDYISFTKHMRDQADKRGSDLLVIDTGDRIEGNGLYDASTPKGLFQYDIYAEADVDIMSTGNHELYKAYSADMEHNTTVPNYKNSYLASNLDYISFETGDRVPQAPRYKKFKTKNQGLNIVAFGFLFDFTGNANNTVVQPVEDTIKEDWFQEAIHEKPDLFVVIGHVGLRMEEFKVIYTAIRKQNWHIPIAFFGGHAHVRDTVQYDSKALAIASGRYFETIGWMSIDGIKKGGAKDVEAAASPTEGHHHHHH | soluble
MDTFEKLDKVDLQILRTLQENARLTTKELAARVSLSSTPVFERLKRLESGGYIKKYIAVLDAEKLNQGFVVFCSVKLRRLNRDIAAEFTRIIQDIPEVTECYNISGSYDYLLKIHAPNMKYYQEFILNVLGTIDSLGSLESTFVMAEVKHRYGIHI | soluble
NPYDVVVIGGGPGGYVASIKAAQLGMKTACVEKRGALGGTCLNVGCIPSKALLHATHLYHDAHANFARYGLMGGEGVTMDSAKMQQQKERAVKGLTGGVEYLFKKNKVTYYKGEGSFETAHSIRVNGLDGKQEMLETKKTIIATGSEPTELPFLPFDEKVVLSSTGALALPRVPKTMVVIGGGVIGLELGSVWARLGAEVTVVEFAPRCAPTLDEDVTNALVGALAKNEKMKFMTSTKVVGGTNNGDSVSLEVEGKNGKRETVTCEALLVSVGRRPFTGGLGLDKINVAKNERGFVKIGDHFETSIPDVYAIGDVVDKGPMLAHKAEDEGVACAEILAGKPGHVNYGVIPAVIYTMPEVASVGKSEDELKKEGVAYKVGKFPFNANSRAKAVSTEDGFVKVLVDKATDRILGVHIVCTTAGELIGEACLAMEYGASSEDVGRTCHAHPTMSEALKEACMALFAKTINF | soluble
MEVEKYDLTLDFDIQKRTFNGTETITADAGDIVLDAVGLQINWMKVNGRDTAFTYDGQTVRAPGDSQPQKIEISFAGKVSDSLSGIYYAGRENGMITTHFEATDARRMFPCVDHPAYKAVFAITVVIDKDYDAISNMPPKRIEVSERKVVEFQDTPRMSTYLLYVGIGKFRYEYEKYRDIDLILASLKDIRSKYPLDMARKSVEFYENYFGIPYALPKMHLISVPEFGAGAMENWGAITFREIYMDIAENSAVTVKRNSANVIAHEIAHQWFGDLVTMKWWNDLWLNESFATFMSYKTMDTLFPEWSFWGDFFVSRTSGALRSDSLKNTHPIEVDVRDPDEISQIFDEISYGKGASILRMIEDYAGYEEFRKGISKYLNDHKFGNAEGSDLWTAIEDVSGKPVKRVMEYWIKNPGYPVIKLKRNGRKITMYQTRFLLNGEEEGRWPVPVNIKKKDGVERILLEDEASIEADGLIKINADSAGFYRVLYDDATFSDVMGHYRDLSPLDRIGLVDDLFAFLLSGHIDPETYRQRIRNFFDDEDHNVITAIVGQMEYLRMLTHAFDDDARAFCRSRMQFLTGKQDENLKIALGRVSRLYVMVDESYAEEMSKLFKDFDSAEPEMRSSIATAYALVTGDLKGLLEKFRSVDRDEDRVRIISAFGKLKSNTDLSTVYGMVEKTEIKKQDMISFFSSALETLPGREFIFANLDRIIRLVIRYFTGNRTASRTVEMMIPVIGLDHPDAEDIVRNIGSKNISMGLAKGIEMLAVNRKLVERIRQTAVK | soluble
MVGGDGATRREQSLCDSCYFAAFDLVDAPDTIEVMVCARCGAVHRGNRWVDIGADDYVDVAVAETTEALGVHLEAEDVDWEVRPEKLDDNTVRMHATFTGVVRDTHRTEQVAVTVKVSRQTCQRCGRIAGESYASTVQVRAVGRDPTSEETDRAAELAHRIVADMEATGDREAFVTEIGDAESGTDIKLSTTKIGLKLARKLVEEFGGDFEDHETLITEDDDGNEVYRVTYAVRLPEFVPGDVVDIAADDGGPVLVQSNHGNLKGVRVTTGEPYEASFEDGDSPDARKLGAVADATEATVVTVEDDAAIQILDPDTYEAQTVARPDYVDPDASTVPALKSRAGLHVLPDALEHHHHHH | not soluble
MAHHHHHHMEPSTLPYITRDVATEPPTTIAIVSCGGQPPELSGKDETMFAVTEDCVEPTKGWINREGKPLLTVCFMHSFGKCVGRTSSNPATCFQIHIKANVLNALRKHYTNPTRRFFTRTVKAMLSPELRRLLCMRAHKEFKVQYLEYRVSDIFPSTGLLQYEAAYRRWLFSDDTNAEHAGTITVLQCLQFSMTGSCDSSTDCPYIHADLKKAQARDPMLARALRDVSDANQGLPTVSIRVPELLPAGHSSTICPADATYATLTDGANLQSGMPSDPARDFTKVPAFTLVYGEGESGGRCVPLQMHQRESSSSSAGGHANSTYPLSHVPFINQDDPASEMTAAKSQPTSGKNEKASVSGKSGSGWVNNSNEGAGSINNHTGSCGSGTD | not soluble
SYHPLLSSSAKASADGFKPLPAIELLDRASESPTTVEIAATTTSDSCSDGARSRFQRLKVVLDLDETLVCAYETSSLPAALRNQAIEAGLKWFELECLSTDKEYDGKPKINYVTVFERPGLHEFLEQLSEFADLILFTAGLEGYARPLVDRIDTRKVLTNRLYRPSTVSTQYRDHVKDLLSTSKNMCRTVIVDNNPFSFLLQPSNGIPCIAFSAGQPNDTQLLDVILPLLKQLSEEDDVRPTLYDRFRMPEWFEKQGIPPSCWKP | soluble
MSTGKIQFAEQNGSFVLKFVGEVRLTLCSALDSTIEKIFAALNFSAIIIDLTETQSIDSTTLGLLAKLSILSRQKIGLLPTLVTTNPDITRLLQSMGFDQVFNIVDRPIPCPECLSDLPPQDQSEDVVRDKVLEAHRILMGLNESNREAFHDLVSALERH | not soluble
PNSPINKLVLNDIGPQIPIHGLRRIAKYAGKAPDFKSLEEAKQHFKASYADFGITNEKQWDIFTKNSVEQRGPNLYVTKMDPAIKKSKSILQIISEFFRHPHKALEGIFYDINLWSIWKQIKCPVIVIHGVNSDILTSEIITQMKKTHALTEVYEVENAGHAPALLDLTVHQRIEDWLATH | not soluble
MQDTIFLKGMRFYGYHGALSAENEIGQIFKVDVTLKVDLSEAGRTDNVIDTVHYGEVFEEVKSIMEGKAVNLLEHLAERIANRINSQYNRVMETKVRITKENPPIPGHYDGVGIEIVRENK | soluble
EKMTRDEIEYMLTNSEETLEAEEIEMLQGIFSLDEMMAREVMVPRTDAFMIDINNDAQSNIEGILSQNFSRVPVFDDDKDRVVGVLHTKRLLEAGFKTGFDTIDLRKILQEPLFVPETIFVDDLLKALRNTQNQMAILLDEYGGVAGLVTLEDLLEEIVGEID | soluble
MSLSDWIDASFTTKQTDAAKSSSQTKPKSVNQVKLDVPLVNQMTTPRLYNGCEVTSLTMLMNYAHINVTKNELAAKITSVPLTYSDGEHGNPEYGFVGDITGNDPGLGVYHKPIYKLAKTETSQVKDLTGANFDTVIEQLEQGRPVWTITTASFAPVSTMQTWQTPQGSVKVTYDMHSVVIVGFNRTKKLIYINNPYGEKQQAVSWKNFEAAYNQMGKQAIVLTLPHEGHHHHHH | soluble
MSVTVKRIIDNTVIVPKLPANEDPVEYPADYFRKSKEIPLYINTTKSLSDLRGYVYQGLKSGNVSIIHVNSYLYGALKDIRGKLDKDWSSFGINIGKAGDTIGIFDLVSLKALDGVLPDGVSDASRTSADDKWLPLYLLGLYRVGRTQMPEYRKKLMDGLTNQCKMINEQFEPLVPEGRDIFDVWGNDSNYTKIVAAVDMFFHMFKKHECASFRYGTIVSRFKDCAALATFGHLCKITGMSTEDVTTWILNREVADEMVQMMLPGQEIDKADSYMPYLIDFGLSSKSPYSSVKNPAFHFWGQLTALLLRSTRARNARQPDDIEYTSLTTAGLLYAYAVGSSADLAQQFCVGDNKYTPDDSTGGLTTNAPPQGRDVVEWLGWFEDQNRKPTPDMMQYAKRAVMSLQGLREKTIGKYAKSEFDK | soluble
MSVWLLQMKTNAIITDITKSIVKMDRILVYRHTNPDPDAIGAQFGLVALLKAAYPEKLVVAMAPVPGHLAWIDTTDEQLVTPQATDLVIAVDCANHERLAGELPTGAFVIKIDHHPNHDPYGQLNWVDETYSSCSEMIYELAQAGCFTVTAAVATKLYAGIIGDTVRFSTPETSTRTLKIASALAATDIDIATISHHEMDLTPALSKLYGYVLSEQTIEPSGLAHVVLPQRIFSDLSLEYGDEDALVPLPGNLTTVKVWLFFIETPQGQYRVHFRSKAINVNAVAKAFNGGGHPLASGAFVPDLATVGQVIEQMQAQVLAATAVDLEHHHHHH | not soluble
IVVYTDREVYGAVGSQVTLHCSFWSSEWVSDDISFTWRYQPEGGRDAISIFHYAKGQPYIDEVGTFKERIQWVGDPSWKDGSIVIHNLDYSDNGTFTCDVKNPPDIVGKTSQVTLYVFEKVPTR | soluble
